From US20230086069A1

Target: human CD19 on cells (CD20+ B cells of human PBMC; Raji lymphoma cells) (human) (UniProt P15391)
Experiment: flow cytometry, dose response on human CD20+ lymphocytes

human CD19 on cells (CD20+ B cells of human PBMC; Raji lymphoma cells) (human), sequence (P15391 20-556): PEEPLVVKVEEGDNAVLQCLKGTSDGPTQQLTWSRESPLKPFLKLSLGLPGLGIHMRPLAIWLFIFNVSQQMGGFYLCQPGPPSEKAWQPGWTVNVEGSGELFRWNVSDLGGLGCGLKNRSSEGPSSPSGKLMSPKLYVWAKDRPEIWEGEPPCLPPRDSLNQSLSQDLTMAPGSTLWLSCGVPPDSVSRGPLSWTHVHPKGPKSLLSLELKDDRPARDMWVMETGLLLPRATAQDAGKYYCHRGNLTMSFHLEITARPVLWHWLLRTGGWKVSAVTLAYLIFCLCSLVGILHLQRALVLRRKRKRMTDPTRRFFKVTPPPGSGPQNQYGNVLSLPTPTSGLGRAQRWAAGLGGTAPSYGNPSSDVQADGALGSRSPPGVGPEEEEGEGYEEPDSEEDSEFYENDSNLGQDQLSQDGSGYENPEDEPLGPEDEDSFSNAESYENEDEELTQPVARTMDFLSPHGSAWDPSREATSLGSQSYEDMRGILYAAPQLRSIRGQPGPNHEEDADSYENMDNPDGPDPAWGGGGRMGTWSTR

Row | EC50 [µg/mL] | Substance
1 | 0.549 | 4G7 (mouse anti-human CD19 antibody)
2 | 0.0544 | HIB19 (mouse anti-human CD19 antibody)
3 | 0.209 | SJ25C (mouse anti-human CD19 antibody)
